Reference: patent US8389676B2, “Biotinylation tag peptides” (Pacific Biosciences of California, Inc., priority 2010, dated 2013)
Residue numbers refer to the chain shown, from its start. No end group written: not given here.

B1: Leu Asn Asp Leu Phe His Ala Gln Lys Ile Glu Trp His (protein)
chain: LNDLFHAQKIEWHHHHHHHHHHHMKHMPRKMYSCDFETTTKVEDCRVWAYGYMNIEDHSEYKIGNSLDEFMAWVLKVQADLYFHNLKFDGAFIINWLERNGFKWSADGLPNTYNTIISRMGQWYMIDICLGYKGKRKIHTVIYDSLKKLPFPVKKIAKDFKLTVLKGDIDYHKERPVGYKITPEEYAYIKNDIQIIAEALLIQFKQGLDRMTAGSDSLKGFKDIITTKKFKKVFPTLSLGLDKEVRYAYRGGFTWLNDRFKEKEIGEGMVFDVNSLYPAQMYSRLLPYGEPIVFEGKYVWDEDYPLHIQHIRCEFELKEGYIPTIQIKRSRFYKGNEYLKSSGGEIADLWLSNVDLELMKEHYDLYNVEYISGLKFKATTGLFKDFIDKWTYIKTTSEGAIKQLAKLMLNSLYGKFASNPDVTGKVPYLKENGALGFRLGEEETKDPVYTPMGVFITAWARYTTITAAQACYDRIIYCDTDSIHLTGTEIPDVIKDIVDPKKLGYWAHESTFKRAKYLRQKTYIQDIYMKEVDGKLVEGSPDDYTDIKFSVKCAGMTDKIKKEVTFENFKVGFSRKMKPKPVQVPGGVVLVDDTFTIK
notes: biotinylation peptide tested as N-terminal fusion: biotinylation peptide-His(10)-phi29 pol
B2: Leu Asn Asp Ile Val Glu Ala Gln Lys Ile Glu Trp His (protein)
chain: B1 chain with L4I, F5V, H6E
notes: as for B1

Target: streptavidin (Streptomyces avidinii, UniProt P22629)
Experiment: Degree of biotinylation assessed by HPLC as fraction bound to streptavidin
Assay type: binding
Details: fusion protein biotinylation peptide-His(10)-phi29 pol, biotinylated in vivo in E. coli co-expressing biotin ligase, Ni-NTA purified, 2-fold molar excess of streptavidin
Method: Each of the DNA sequences encoding the affinity peptides was added individually to the 5′ terminus of a His(10)-tagged phi29 DNA polymerase gene such that the polypeptide expressed from each construct was a fusion protein consisting of: N-terminus-biotinylation peptide-His(10)-phi29 pol-C-terminus. Each gene was expressed in E. coli cells co-expressing biotin ligase in culture medium containing biotin. These conditions are known to effect the in-vivo biotinylation of biotinylation peptides. Proteins were purified using Ni-NTA columns and then mixed with a 2-fold molar excess of streptavidin under conditions known to effect binding of streptavidin to biotinylated fusion proteins.
The degree of biotinylation of each protein was assessed by HPLC. […] None of the biotinylation peptides affected the polymerase activity when tested in a branching fraction assay performed, for example, as described in U.S. patent application No. 2010/0112645.

Sequence of streptavidin (P22629 25-183, species assumed): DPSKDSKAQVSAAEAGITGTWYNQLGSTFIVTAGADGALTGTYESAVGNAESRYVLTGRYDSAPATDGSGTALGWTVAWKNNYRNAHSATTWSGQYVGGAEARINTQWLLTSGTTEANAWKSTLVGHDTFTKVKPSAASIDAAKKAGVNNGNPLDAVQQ

Row | Molecule | degree of biotinylation: bound to streptavidin
1 | B1 | approximately 50%
2 | B2 | approximately 50%
